The target of assay [1] is recombinant human histone H2B (human). The assay can be described thus: SPR; Ca2+. For orientation: In SPR one partner is held on a chip, and binding of the other changes the refractive index at the surface.
In assay [2] the target is T1, recombinant human histone H3 (UniProt P68431 2-136). The assay can be described thus: SPR; EDTA/EGTA.
In assay [3] the target is T1, recombinant human histone H3. Kind of assay: SPR; Ca2+.
The target in assay [4] is T2, recombinant human histone H4 (UniProt P62805 2-103). Kind of assay: SPR; Ca2+.
The target of assay [5] is T2, recombinant human histone H4. Kind of assay: SPR; EDTA/EGTA.

As usually defined, the Kd is the equilibrium constant for the complex coming apart.

B1: Escherichia coli-expressed N-terminal domain human PTX3 wherein the 47th, 49th, 103rd cysteine residues were replaced with serine residue (other)
chain: ENLYFQGENSDDYDLMYVNLDNEIDNGLHPTEDPTPSDSGQEHSEWDKLFIMLENSQMRERMLLQATDDVLRGELQRLREELGRLAESLARPSAPGAPAEARLTSALDELLQATRDAGRRLARMEGAEAQRPEEAGRALAAVLEELRQTRADLHAVQGWAARSWLPAG
In the case of B1, the Kd in assay [1] came to 10.9 nM; in assay [2], 1.95 nM; in assay [3], 0.354 nM; in assay [4], 1.21 nM.

B2: Myc- and His-tagged C-terminal domain human PTX3 (animal cell expressed) (other)
chain: CETAILFPMRSKKIFGSVHPVRPMRLESFSACIWVKATDVLNKTILFSYGTKRNPYEIQLYLSYQSIVFVVGGEENKLVAEAMVSLGRWTHLCGTWNSEEGLTSLWVNGELAATTVEMATGHIVPEGGILQIGQEKNGCCVGGGFDETLAFSGRLTGFNIWDSVLSNEEIRETGGAESCHIRGNIVGWGVTEIQPHGGAQYVS
In the case of B2, the Kd worked out at 4.77 nM in assay [2], 322 nM in assay [5], 5.64 nM in assay [3] and 1.04 nM in assay [4].

For the origin of these results see patent US20150299277A1 (published 2015).
